In PMC8391104 (2021):
Where a chain is given by its changes, count along the chain named. Where no end group is shown, it is not given here. [ ]: non-standard residue; d: D form. pT = C[C@@H](OP(=O)(O)O)[C@H](N)C(=O)O; pS = N[C@@H](COP(=O)(O)O)C(=O)O

Experiments:
Experiment in all cases: ITC
Mad1^CTD R650A = target: T1, Mad1^CTD R650A (human, UniProt Q9Y6D9 597-718, R650A)
T1 sequence: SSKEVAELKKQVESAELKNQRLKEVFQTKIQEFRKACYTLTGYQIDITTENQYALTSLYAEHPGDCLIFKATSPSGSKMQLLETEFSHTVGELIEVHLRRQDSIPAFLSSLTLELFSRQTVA

Mad1CTD K614A = target: T2, Mad1CTD K614A (Homo sapiens)
T2 chain: T1 sequence with K18A, A54R

Mad1^CTD I643A = target: T3, Mad1^CTD I643A (human, UniProt Q9Y6D9 597-718, I643A)
T3 sequence: T1 sequence with I47A, A54R

Mad1^CTD Q627A = target: T4, Mad1^CTD Q627A (human, UniProt Q9Y6D9 597-718, Q627A)
T4 sequence: T1 sequence with Q31A, A54R

Kd (Mad1^CTD R650A): 1100 nM
Kd (Mad1CTD K614A): 2400 nM
Kd (Mad1^CTD I643A): 1400 nM
Kd (Mad1^CTD Q627A): 2400 nM
Binder: KVQP[pS]P[pT]VHTKEALGFIMNMFQAPTS [doubly phosphorylated Bub1^CD1 peptide (pSer459-pThr461)]
